From patent publication US20210284724A1 (I MAB BIOPHARMA US, published 2021) come the findings set out here.

The target in assay [1] is T1, human CXCL13 (human, UniProt O43927 23-109).
T1 construct: also called huCXCL13; rhCXCL13
T1 sequence (looked up): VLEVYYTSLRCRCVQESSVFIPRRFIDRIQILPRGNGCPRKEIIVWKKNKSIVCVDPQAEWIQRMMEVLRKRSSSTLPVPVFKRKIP
The experiment in a line: ELISA binding, Fab. (In an ELISA, binding on a coated surface is turned into a signal by an enzyme label.)

The target of assay [2] is T1, human CXCL13. Description: SPR Biacore, off-rate ranking of Fabs. For orientation: SPR reads the build-up and loss of mass on a sensor chip optically.
Assay [3] has as its target T1, human CXCL13. Description: SPR Biacore 8K, Fab over immobilised CXCL13. The method, then:
HuCXCL13 binding affinity by Surface Plasmon Resonance. 411A11E9, 415A3D1, 64C10G1, 21H12D9, 329F2E1, 71F4A3 were selected to produce Fab and tested binding affinity. The binding of the antibodies to huCXCL13 was examined by Biacore 8K. 10 mM HEPES, 150 mM NaCl, 3 mM EDTA, 0.05% Tween-20, pH 7.4 served as running buffer and 10 mM glycine-HCl, pH2.0 served as regeneration buffer. CXCL13 protein was immobilized on Sensor Chip CM5 using amine coupling method (immobilization level ˜30RU). The serial concentrations of Fab (0-16 nM) were injected over immobilized CXCL13 at the flow rate of 30 μl/min. The dissociation phases were 600s.

In assay [4] the target is T1, human CXCL13. Description: SPR Biacore 8K, Fab over immobilised CXCL13. The protocol:
Among all humanized Fab samples, 71F4A3-VH2VL1, 71F4A3-VH1VL1 (Hz71F4), 71F4A3-VH1VL2, 71F4A3-VH3VL1, 411A11E9-VH1VL4, 411A11E9-VH3VL4, 411A11E9-VH2VL4, 411A11E9-VH3VL2, 411A11E9-VH1VL2, 21H12D9-VH1VL1, 21H12D9-VH2VL2, 21H12D9-VH3VL3, 21H12D9-VH1VL2, 64C10G1-VH1VL3, 64C10G1-VH1VL4, 64C10G1-VH1VL1, 64C10G1-VH1VL2 were selected to test affinity by Biacore 8K. 10 mM HEPES, 150 mM NaCl, 3 mM EDTA, 0.05% Tween-20, pH 7.4 served as running buffer and 10 mM glycine-HCl, pH2.0 served as regeneration buffer. CXCL13 protein were immobilized on Sensor Chip CM5 using amine coupling method (immobilization level ˜250RU). The serial concentrations of Fab (0-20 nM) were injected over immobilized CXCL13 at the flow rate of 30 μl/min. The dissociation phases were 600s.
This is another data set of the same source.

The target in assay [5] is T1, human CXCL13. Description: cell-based blocking assay, CXCL13 to CXCR5 cells. The procedure, abridged:
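Serially diluted humanized Fabs were pre-incubated for 30 min at room temperature with an equal volume of 0.3 μg/ml human CXCL13. 100 μl was added for 30 min to CHO-K1-CXCR5 cells (5×10⁴/well, plated overnight at 37° C, fixed with 2% PFA, blocked with 1% BSA in PBST). After three PBST washes, bound CXCL13 was captured with 3 μg/ml of a human anti-CXCL13 antibody, detected with anti-human Fc-HRP and read at 450 nm. IC50 came from the titration.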

For assay [6], the target named is T1, human CXCL13. The experiment in a line: SPR Biacore T200. From the text:
In the first approach, mutations were chosen to target the hotspots in LCDR1, HCDR2 and HCDR3. Usually, CDR3 contributes most to antigen binding and heavy chain is more important than light chain for antigen binding. Moreover, LCDR1 is important for antigen binding. For the first trial, random mutations were targeted to hotspots in LCDR1, HCDR2 and HCDR3. Eliminate hotspots that code for conserved and buried amino acids in CDRs. […] After finishing construction of phage library, antigen CXCL13 screening was followed. Antibodies of these sequences were generated, and affinity testing was performed by Biacore T200.

Residue numbers refer to the chain shown, from its start.

The term EC50 denotes the midpoint of the concentration-response curve. One may read the Kd as the concentration at which binding is half-saturated. Read a high Kd as a looser complex. In general, koff refers to the rate constant with which the complex falls apart. As usually defined, the kon is the second-order rate constant of association. Read a high kon as fast association. One may read the IC50 as the midpoint of a concentration-inhibition curve.

B1: 71F4A3 chimeric Fab (Fab, V domains shown)
VH: EVKLLQSGGGLVQPGGSLKLSCAASGIDFSRYWMSWVRRAPGKGLEWIGEINPDSSTINYAPSLKDKFIISRDNAKNTLYLQMSKVRSEDTALYYCARQDDYEYYAMDYWGQGTSVTVSS
VL: DIVMTQSHKSMSTSVGDRVSITCKASQDVNTGVAWYRQKPGQSPKLLIYSASYRYTGVPDRFTGSGSGTDFTFTISSVQAEDLAVYYCQQYYSTPLTFGAGTKLELK
notes: Fab
As to B1, in the assay with human CXCL13 [1], the EC50 was determined as 1.49 nM. For the same molecule, in the assay with human CXCL13 [2], binding was put at a Kd of 0.556 nM, the dissociation rate constant (koff) stood at 0.00184 s⁻¹ and the on-rate (kon) amounted to 3.3e+06 M⁻¹ s⁻¹. In the assay with human CXCL13 [3], this molecule had a dissociation constant Kd of 0.154 nM, a koff of 0.000285 s⁻¹ and an association rate constant (kon) of 1.85e+06 M⁻¹ s⁻¹. Further, in the assay with human CXCL13 [4], the dissociation constant Kd came out at 0.782 nM, the off-rate (koff) was determined as 0.00141 s⁻¹ and the kon is 1.8e+06 M⁻¹ s⁻¹. In the assay with human CXCL13 [5], the half-inhibitory concentration (IC50) turned out to be 5.07 nM.

B2: 71F4-4B12 (antibody, V domains shown)
VH: EVQLVESGGGLVQPGGSLRLSCAASGIDFSRYWMSWVRQAPGKGLEWVAEINPERNYINYAPSLKDRFTISRDNAKNSLYLQMNSLRAEDTAVYYCARQDDYDKYAMDYWGQGTTVTVSS
VL: DIQMTQSPSSLSASVGDRVTITCKASQDVNTGVTWYQQKPGKAPKLLIYSASYRYTGVPSRFSGSGSGTDFTFTISSLQPEDIATYYCQQYYSTPLTFGGGTKLEIK
notes: not certain; also called 71F4A3-B12
Molecule B2 yielded a kon in the assay with human CXCL13 [6] of 5.36e+06 M⁻¹ s⁻¹.

B3: 71F4A3-5A4 (antibody, V domains shown)
VH: B2 VH with R55S, N56T, Y57G, D103W, K104T
VL: B2 VL with G32A, T34S, Y36T
notes: also called 71F4-5A4
In turn, B3 returned a kon with human CXCL13 [6] of 6.58e+06 M⁻¹ s⁻¹.

B4: 71F4A3-4H1 (antibody, V domains shown)
VH: B2 VH with R55S, N56T, Y57L, D103R, K104N
VL: B2 VL with T34S, Y36F
notes: also called 71F4-4H1
Molecule B4 gave a kon with human CXCL13 [6] of 1.64e+07 M⁻¹ s⁻¹.

B5: 71F4A3-3F12 (antibody, V domains shown)
VH: B2 VH with R55S, Y57F, D103S, K104V
VL: B2 VL with Y36F
notes: also called 71F4-3F12
For B5, the kon in the assay with human CXCL13 [6] was 6.3e+06 M⁻¹ s⁻¹.

B6: 71F4A3-BD12 (antibody, V domains shown)
VH: B2 VH with R55T, N56T, Y57I, D103R, K104H
VL: B2 VL with T34A, Y36F
notes: also called 71F4-BD12
On to B6, for which, in the assay with human CXCL13 [6], the kon came to 1.9e+06 M⁻¹ s⁻¹.

B7: 71F4A3-BC4 (antibody, V domains shown)
VH: B2 VH with R55A, N56G, Y57K, I58W, D103T, K104T
VL: B2 VL with T34S
notes: also called 71F4-BC4
As for B7, the on-rate constant (kon) in the assay with human CXCL13 [6] turned out to be 362000 M⁻¹ s⁻¹.

B8: 71F4A3-BC1 (antibody, V domains shown)
VH: B2 VH with R55A, N56S, Y57S, D103S, K104H
VL: B2 VL with T34S, Y36S
notes: also called 71F4-BC1
B8: the kon with human CXCL13 [6] was 2.09e+06 M⁻¹ s⁻¹.

B9: 71F4A3-VH3VL1 (Fab, V domains shown)
VH: B2 VH with E6Q, A49G, E54D, R55S, N56S, Y57T, L86V, D103E, K104Y
VL: B2 VL with T34A
notes: Humanized Fab, human gamma 1 and kappa constant domains
With B9, in the assay with human CXCL13 [1], the EC50 came to 0.575 nM. In addition, in the assay with human CXCL13 [2], binding was put at a Kd of 0.462 nM, the off-rate constant (koff) is 0.000987 s⁻¹ and the on-rate constant (kon) turned out to be 2.14e+06 M⁻¹ s⁻¹. In the assay with human CXCL13 [4], this molecule returned a dissociation constant (Kd) of 0.934 nM, a koff of 0.00153 s⁻¹ and an on-rate constant (kon) of 1.64e+06 M⁻¹ s⁻¹. The molecule further displayed an IC50 with human CXCL13 [5] of 11.3 nM.

B10: 71F4A3-VH2VL1 (Fab, V domains shown)
VH: B2 VH with E6Q, E54D, R55S, N56S, Y57T, D103E, K104Y
VL: B2 VL with T34A
notes: as for B9
Take B10: the concentration for a half-maximal effect (EC50) with human CXCL13 [1] was 0.819 nM. In the assay with human CXCL13 [2], this molecule came in with a Kd of 0.554 nM, a koff of 0.00108 s⁻¹ and a kon of 1.95e+06 M⁻¹ s⁻¹. Further, in the assay with human CXCL13 [4], the dissociation constant Kd was 0.853 nM, the koff amounted to 0.00145 s⁻¹ and the association rate constant (kon) was determined as 1.7e+06 M⁻¹ s⁻¹. In the assay with human CXCL13 [5], this molecule came in with an IC50 of 10.5 nM.

B11: 71F4A3-BE3 (antibody, V domains shown)
VH: B2 VH with R55S, N56S, Y57T, D103L, K104T
VL: B2 VL with G32A, T34D, Y36F
notes: also called 71F4-BE3
Consider B11, for which the kon with human CXCL13 [6] came to 1.03e+06 M⁻¹ s⁻¹.
